# Experimental data reported in patent US20260274955A1 (JANUX THERAPEUTICS, published 2026).
# B1: Phage-454 (peptide)
# peptide: YCDGHSSLYMHKCL
# notes: on phage, pIII fusion
# B2: Phage-463 (peptide)
# peptide: YCDGHIGLYLNKCL
# notes: on phage, pIII fusion
# B3: Phage-462 (peptide)
# peptide: YCDGHSADYMAKCL
# notes: on phage, pIII fusion
# B4: Phage-467 (peptide)
# peptide: YCDGHSPEYIGKCL
# notes: on phage, pIII fusion
# B5: Phage-494 (peptide)
# peptide: YCDGHSLEYIGKCL
# notes: on phage, pIII fusion
# B6: Phage-468 (peptide)
# peptide: YCAGHLPEFMDKCL
# notes: on phage, pIII fusion
# B7: Phage-460 (peptide)
# peptide: YCEGHAQEYMNKCL
# notes: on phage, pIII fusion
# B8: Phage-455 (peptide)
# peptide: YCDGHSWQYISKCL
# notes: on phage, pIII fusion
# B9: Phage-466 (peptide)
# peptide: YCEGHLSQYMSKCL
# notes: on phage, pIII fusion
# B10: Phage-453 (peptide)
# peptide: YCDGHSTEYMEKCL
# notes: on phage, pIII fusion
# B11: Phage-476 (peptide)
# peptide: YCDGHSVEYMEKCL
# notes: on phage, pIII fusion
# B12: Phage-564 (peptide)
# peptide: YCDGHSQEYMEKCL
# notes: on phage, pIII fusion
# B13: Phage-457 (peptide)
# peptide: YCDGHAPQWMAKCL
# notes: on phage, pIII fusion
# B14: Phage-451 (peptide)
# peptide: YCDGHSEQYMSKCL
# notes: on phage, pIII fusion
# B15: Phage-589 (peptide)
# peptide: YCDGHSLQYMSKCL
# notes: on phage, pIII fusion
# B16: Phage-471 (peptide)
# peptide: YCDGHSEVYMAKCL
# notes: on phage, pIII fusion
# B17: Phage-465 (peptide)
# peptide: YCEGHLPQYMRPCL
# notes: on phage, pIII fusion
# B18: Phage-450 (peptide)
# peptide: YCDGHSPAYIWKCL
# notes: on phage, pIII fusion
# B19: Phage-456 (peptide)
# peptide: YCEGHAPQYMNKCL
# notes: on phage, pIII fusion
# B20: Phage-461 (peptide)
# peptide: YCEGHAPQYMTKCL
# notes: on phage, pIII fusion
# B21: Phage-500 (peptide)
# peptide: YCDGHAQEYMDKCL
# notes: on phage, pIII fusion
# B22: Phage-452 (peptide)
# peptide: YCDGHAKEYMDKCL
# notes: on phage, pIII fusion
# B23: Phage-458 (peptide)
# peptide: YCDGHSREYMSKCL
# notes: on phage, pIII fusion
# B24: Phage-469 (peptide)
# peptide: YCDGHSREYMNKCL
# notes: on phage, pIII fusion
# B25: Phage-459 (peptide)
# peptide: YCDGHAAEYMAKCV
# notes: on phage, pIII fusion
# B26: Phage-464 (peptide)
# peptide: YCEGHLPMYMIKCL
# notes: on phage, pIII fusion
# B27: Phage-885 (peptide)
# peptide: YCAGHLDEYMEKCL
# B28: Phage-863 (peptide)
# peptide: YCEGHKKEYMLKCL
# B29: Phage-886 (peptide)
# peptide: YCDGHTWMYKQKCL
# B30: Phage-879 (peptide)
# peptide: YCDGHDEQYLMKCL
# B31: Phage-860 (peptide)
# peptide: YCEGHLQEYMGKCL
# B32: Phage-875 (peptide)
# peptide: YCEGHIKDYMTKCL
# B33: Phage-870 (peptide)
# peptide: YCDGHAAMYMSKCL
# B34: Phage-882 (peptide)
# peptide: YCDGHSQIYMSKCL
# B35: Phage-868 (peptide)
# peptide: YCAGHTTEYIVKCL
# B36: Phage-884 (peptide)
# peptide: YCTGWQVAYMQNCF
# B37: Phage-883 (peptide)
# peptide: YCDGHWPGYLWKCL
# B38: Phage-869 (peptide)
# peptide: YCEGHVPQYMGKCL
# B39: Phage-871 (peptide)
# peptide: YCEGHLGLYMKKCL
# B40: Phage-865 (peptide)
# peptide: YCDGHLETYMQKCL
# B41: Phage-861 (peptide)
# peptide: YCDGHVTEYMAKCL
# B42: Phage-874 (peptide)
# peptide: YCDGHSTEYMWKCL
# B43: Phage-862 (peptide)
# peptide: YCDGHIMPYLDKCL
# B44: Phage-876 (peptide)
# peptide: YCAGHDAEYMQKCL
# B45: Phage-872 (peptide)
# peptide: YCAGHAQEYMRKCL
# B46: Phage-878 (peptide)
# peptide: YCEGHAPVYMQKCL
# B47: Phage-877 (peptide)
# peptide: YCEGHMQWYMAKCL
# B48: Phage-873 (peptide)
# peptide: YCAGHIPQYLNKCL
# B49: Phage-864 (peptide)
# peptide: YCEGHVELYRQKCL
# B50: Phage-867 (peptide)
# peptide: YCEGHLDEYLQKCM
# B51: Phage-866 (peptide)
# peptide: YCQGHLPIYIQKCL
# Molecular target: T1, anti-CD28 Fab (SEQ ID NOs: 202, 203)
# T1 construct: biotinylated and captured on neutravidin coated plates in the phage ELISA
# Assay: phage ELISA on captured Fab, wells pre-incubated with CD28 antigen (competitor);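 further: clonal phage ELISA with wells pretreated with CD28 plus blocking buffer before phage addition, bound phage detected by HRP-linked anti-M13 antibody, reference wells got blocking buffer only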
# Experimental: (§1) Clonal phage were harvested as crude supernatants and screened via standard ELISAs. […] Prior to the addition of clonal phage, wells were incubated with blocking buffer and CD28 antigen or blocking buffer alone. Without washing or aspirating, clonal phage supernatants were then added to the wells and incubated for a short time. Wells were then washed followed by detection of bound phage using a horse radish conjugated anti-M13 antibody.
# T1 sequence (VH, as listed by the source, chain 1 of 2): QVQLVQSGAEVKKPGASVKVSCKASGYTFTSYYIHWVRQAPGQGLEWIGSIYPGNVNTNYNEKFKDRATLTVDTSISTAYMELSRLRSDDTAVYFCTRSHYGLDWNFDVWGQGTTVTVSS
# T1 sequence (VL, as listed by the source, chain 2 of 2): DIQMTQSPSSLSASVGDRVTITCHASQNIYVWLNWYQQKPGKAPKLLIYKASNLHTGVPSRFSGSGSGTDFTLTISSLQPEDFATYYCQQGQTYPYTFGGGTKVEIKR
row,Binder,Anti-CD28 Fab signal in the presence of CD28
1,B1,0.07
2,B2,0.06
3,B3,0.07
4,B4,0.07
5,B5,0.06
6,B6,0.06
7,B7,0.06
8,B8,0.05
9,B9,0.07
10,B10,0.08
11,B11,0.09
12,B12,0.06
13,B13,0.1
14,B14,0.07
15,B15,0.06
16,B16,0.06
17,B17,0.08
18,B18,0.08
19,B19,0.08
20,B20,0.08
21,B21,0.08
22,B22,0.08
23,B23,0.1
24,B24,0.06
25,B25,0.07
26,B26,0.09

# Molecular target: T1, anti-CD28 Fab (SEQ ID NOs: 202, 203)
# Assay: phage ELISA on captured Fab;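 further: ELISA with clonal phage supernatants added to wells preincubated with CD28 antigen or with blocking buffer only, bound phage detected by HRP-conjugated anti-M13 antibody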
# Experimental: as §1
row,Binder,"Anti-CD28 Fab (SEQ ID NOs: 202, 203) signal"
1,B1,1.67
2,B2,1.66
3,B3,1.67
4,B4,1.66
5,B5,1.63
6,B6,1.66
7,B7,1.67
8,B8,1.67
9,B9,1.66
10,B10,1.68
11,B11,1.65
12,B12,1.5
13,B13,1.67
14,B14,1.68
15,B15,1.45
16,B16,1.66
17,B17,1.66
18,B18,1.68
19,B19,1.67
20,B20,1.67
21,B21,1.62
22,B22,1.68
23,B23,1.67
24,B24,1.66
25,B25,1.67
26,B26,1.66

# Molecular target: Anti-CD28 Fab (SEQ ID NOs: 202, 203)
# Assay: phage binding ELISA on captured Fab, competitor CD28 antigen;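 further: clonal phage supernatant binding in wells preincubated with CD28 antigen in blocking buffer, detected by HRP-conjugated anti-M13 antibody ELISA, compared with blocking buffer alone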
# Experimental: as §1
# Sequence of Anti-CD28 Fab (SEQ ID NOs: 202, 203) (VH, as listed by the source, chain 1 of 2): as the sequence (VH, as listed by the source, chain 1 of 2) above
# Sequence of Anti-CD28 Fab (SEQ ID NOs: 202, 203) (VL, as listed by the source, chain 2 of 2): as the sequence (VL, as listed by the source, chain 2 of 2) above
row,Binder,Anti-CD28 Fab signal in the presence of CD28
1,B27,0.07
2,B28,0.08
3,B29,0.08
4,B30,0.07
5,B31,0.25
6,B32,0.08
7,B33,0.07
8,B34,0.06
9,B35,0.05
10,B36,0.06
11,B37,0.06
12,B38,0.08
13,B39,0.06
14,B40,0.08
15,B41,0.07
16,B42,0.06
17,B43,0.05
18,B44,0.06
19,B45,0.07
20,B46,0.08
21,B47,0.09
22,B48,0.07
23,B49,0.06
24,B50,0.08
25,B51,0.07

# Molecular target: Anti-CD28 Fab (SEQ ID NOs: 202, 203)
# Assay: phage binding ELISA on captured Fab;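 further: clonal phage supernatants added briefly to wells pre-incubated with CD28 antigen or with blocking buffer only, then washed, bound phage read by ELISA using HRP-coupled anti-M13 antibody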
# Experimental: as §1
row,Binder,"Anti-CD28 Fab (SEQ ID NOs: 202, 203) signal"
1,B27,0.4
2,B28,0.56
3,B29,0.4
4,B30,0.44
5,B31,0.58
6,B32,0.47
7,B33,0.5
8,B34,0.42
9,B35,0.5
10,B36,0.42
11,B37,0.42
12,B38,0.5
13,B39,0.49
14,B40,0.53
15,B41,0.58
16,B42,0.49
17,B43,0.57
18,B44,0.46
19,B45,0.49
20,B46,0.44
21,B47,0.45
22,B48,0.49
23,B49,0.56
24,B50,0.51
25,B51,0.51
